Test results from patent US20180155451A1 (published 2018).

B1: GpH7-A5/GpH7-B3 variant S337_08L/GpL16-k0 (antibody, human IgG1, kappa)
heavy 1: not shown
heavy 2: not shown
light: DIVMTQSPLSLPVTPGEPASISCQASESLVHSNRNTYLHWYLQKPGQSPQLLIYKVSNRFSGVPDRFSGSGSGTDFTLKISRVEAEDVGVYYCSQNTHVPPTFGQGTKVEIERTVAAPSVFIFPPSDEQLKSGTASVVCLLNNFYPREAKVQWKVDNALQSGNSQESVTEQDSKDSTYSLSSTLTLSKADYEKHKVYACEVTHQGLSSPVTKSFNRGEC
notes: heterodimerized, mutation in one H chain only; also called He Ab
B2: GpH7-A5/GpH7-B3 variant S337_20W/GpL16-k0 (antibody, human IgG1, kappa)
heavy 1: not shown
heavy 2: not shown
light: B1 light
notes: as for B1
B3: GpH7-A5/GpH7-B3 variant T335_18N/GpL16-k0 (antibody, human IgG1, kappa)
heavy 1: not shown
heavy 2: not shown
light: B1 light
notes: as for B1
B4: GpH7-A5/GpH7-B3 variant T335_20W/GpL16-k0 (antibody, human IgG1, kappa)
heavy 1: not shown
heavy 2: not shown
light: B1 light
notes: as for B1
B5: GpH7-A5/GpH7-B3 variant V266_08L/GpL16-k0 (antibody, human IgG1, kappa)
heavy 1: not shown
heavy 2: not shown
light: B1 light
notes: as for B1
B6: GpH7-A5/GpH7-B3 variant Y296_04F/GpL16-k0 (antibody, human IgG1, kappa)
heavy 1: not shown
heavy 2: not shown
light: B1 light
notes: as for B1
B7: GpH7-A5/GpH7-B3 variant Y296_09D/GpL16-k0 (antibody, human IgG1, kappa)
heavy 1: not shown
heavy 2: not shown
light: B1 light
notes: as for B1
B8: GpH7-A5/GpH7-B3 variant Y296_16H/GpL16-k0 (antibody, human IgG1, kappa)
heavy 1: not shown
heavy 2: not shown
light: B1 light
notes: as for B1
B9: GpH7-A5/GpH7-B3 variant A330_16H/GpL16-k0 (antibody, human IgG1, kappa)
heavy 1: not shown
heavy 2: not shown
light: B1 light
notes: as for B1
B10: GpH7-A5/GpH7-B3 variant E333_09D/GpL16-k0 (antibody, human IgG1, kappa)
heavy 1: not shown
heavy 2: not shown
light: B1 light
notes: as for B1
B11: GpH7-A5/GpH7-B3 variant G236_03V/GpL16-k0 (antibody, human IgG1, kappa)
heavy 1: not shown
heavy 2: not shown
light: B1 light
notes: as for B1
B12: GpH7-A5/GpH7-B3 variant G236_07I/GpL16-k0 (antibody, human IgG1, kappa)
heavy 1: not shown
heavy 2: not shown
light: B1 light
notes: as for B1
B13: GpH7-A5/GpH7-B3 variant H268_02A/GpL16-k0 (antibody, human IgG1, kappa)
heavy 1: not shown
heavy 2: not shown
light: B1 light
notes: as for B1
B14: GpH7-A5/GpH7-B3 variant H268_18N/GpL16-k0 (antibody, human IgG1, kappa)
heavy 1: not shown
heavy 2: not shown
light: B1 light
notes: as for B1
B15: GpH7-A5/GpH7-B3 variant H268_19Q/GpL16-k0 (antibody, human IgG1, kappa)
heavy 1: not shown
heavy 2: not shown
light: B1 light
notes: as for B1
B16: GpH7-A5/GpH7-B3 variant I336_06M/GpL16-k0 (antibody, human IgG1, kappa)
heavy 1: not shown
heavy 2: not shown
light: B1 light
notes: as for B1
B17: GpH7-B3 variant L235_20W/GpL16-k0 (antibody, human IgG1, kappa)
heavy: not shown
light: B1 light
notes: homodimerized, mutation in both H chains; also called Ho Ab
B18: GpH7-B3 variant L328_06M/GpL16-k0 (antibody, human IgG1, kappa)
heavy: not shown
light: B1 light
notes: as for B17
B19: GpH7-B3 variant L328_14T/GpL16-k0 (antibody, human IgG1, kappa)
heavy: not shown
light: B1 light
notes: as for B17
B20: GpH7-B3 variant L328_20W/GpL16-k0 (antibody, human IgG1, kappa)
heavy: not shown
light: B1 light
notes: as for B17
B21: GpH7-B3 variant S239_09D/GpL16-k0 (antibody, human IgG1, kappa)
heavy: not shown
light: B1 light
notes: as for B17
B22: GpH7-B3 variant S267_02A/GpL16-k0 (antibody, human IgG1, kappa)
heavy: not shown
light: B1 light
notes: as for B17
B23: GpH7-B3 variant S324_02A/GpL16-k0 (antibody, human IgG1, kappa)
heavy: not shown
light: B1 light
notes: as for B17
B24: GpH7-B3 variant S337_09D/GpL16-k0 (antibody, human IgG1, kappa)
heavy: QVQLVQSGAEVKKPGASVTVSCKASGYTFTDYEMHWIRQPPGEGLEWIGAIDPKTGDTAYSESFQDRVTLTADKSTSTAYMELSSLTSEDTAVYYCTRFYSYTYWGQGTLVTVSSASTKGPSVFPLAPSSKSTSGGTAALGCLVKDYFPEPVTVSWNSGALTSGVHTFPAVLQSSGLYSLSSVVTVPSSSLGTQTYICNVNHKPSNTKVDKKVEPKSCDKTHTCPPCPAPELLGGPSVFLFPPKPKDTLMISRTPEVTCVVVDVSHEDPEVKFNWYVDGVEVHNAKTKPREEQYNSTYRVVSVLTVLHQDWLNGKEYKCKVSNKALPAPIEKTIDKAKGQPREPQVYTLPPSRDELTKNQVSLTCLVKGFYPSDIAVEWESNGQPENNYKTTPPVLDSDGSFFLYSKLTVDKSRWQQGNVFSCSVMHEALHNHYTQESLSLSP
light: B1 light
notes: as for B17
B25: GpH7-B3 variant S337_10E/GpL16-k0 (antibody, human IgG1, kappa)
heavy: not shown
light: B1 light
notes: as for B17
B26: GpH7-B3 variant T335_01G/GpL16-k0 (antibody, human IgG1, kappa)
heavy: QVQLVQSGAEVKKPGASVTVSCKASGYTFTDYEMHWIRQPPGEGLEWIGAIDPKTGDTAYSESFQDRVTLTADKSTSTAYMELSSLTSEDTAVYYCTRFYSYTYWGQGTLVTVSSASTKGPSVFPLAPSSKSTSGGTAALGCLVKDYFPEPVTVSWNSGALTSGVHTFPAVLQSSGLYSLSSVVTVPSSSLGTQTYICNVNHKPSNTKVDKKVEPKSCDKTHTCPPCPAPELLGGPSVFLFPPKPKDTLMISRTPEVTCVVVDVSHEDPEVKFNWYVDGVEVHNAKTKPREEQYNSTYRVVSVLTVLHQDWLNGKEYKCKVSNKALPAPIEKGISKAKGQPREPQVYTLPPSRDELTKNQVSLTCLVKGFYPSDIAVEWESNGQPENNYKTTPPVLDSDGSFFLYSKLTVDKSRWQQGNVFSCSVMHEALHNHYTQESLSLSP
light: B1 light
notes: as for B17
B27: GpH7-B3 variant T335_07I/GpL16-k0 (antibody, human IgG1, kappa)
heavy: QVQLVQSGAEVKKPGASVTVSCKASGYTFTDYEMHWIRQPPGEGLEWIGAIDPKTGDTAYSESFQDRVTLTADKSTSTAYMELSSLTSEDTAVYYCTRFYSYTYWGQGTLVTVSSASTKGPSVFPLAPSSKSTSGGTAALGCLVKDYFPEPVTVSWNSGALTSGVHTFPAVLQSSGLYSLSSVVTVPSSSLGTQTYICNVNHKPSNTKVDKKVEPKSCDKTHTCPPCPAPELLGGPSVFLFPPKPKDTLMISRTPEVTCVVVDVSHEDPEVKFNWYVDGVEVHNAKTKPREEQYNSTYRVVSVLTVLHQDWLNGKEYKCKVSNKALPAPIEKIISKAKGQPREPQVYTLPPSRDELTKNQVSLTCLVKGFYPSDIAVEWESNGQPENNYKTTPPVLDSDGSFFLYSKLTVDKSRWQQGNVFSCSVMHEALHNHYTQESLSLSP
light: B1 light
notes: as for B17
B28: GpH7-B3 variant T335_10E/GpL16-k0 (antibody, human IgG1, kappa)
heavy: not shown
light: B1 light
notes: as for B17
B29: GpH7-B3 variant T335_13S/GpL16-k0 (antibody, human IgG1, kappa)
heavy: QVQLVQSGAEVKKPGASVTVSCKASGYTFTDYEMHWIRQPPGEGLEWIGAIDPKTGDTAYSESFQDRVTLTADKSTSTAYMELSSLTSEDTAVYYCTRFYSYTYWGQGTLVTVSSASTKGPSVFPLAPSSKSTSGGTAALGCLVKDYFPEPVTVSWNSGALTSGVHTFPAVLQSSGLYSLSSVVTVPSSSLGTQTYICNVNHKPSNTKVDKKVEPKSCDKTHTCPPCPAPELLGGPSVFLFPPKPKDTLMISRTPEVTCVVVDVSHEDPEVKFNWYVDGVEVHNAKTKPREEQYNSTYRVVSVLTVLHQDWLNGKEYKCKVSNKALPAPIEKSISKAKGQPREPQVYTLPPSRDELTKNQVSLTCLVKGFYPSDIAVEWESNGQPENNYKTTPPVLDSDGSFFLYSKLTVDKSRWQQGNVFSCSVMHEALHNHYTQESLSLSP
light: B1 light
notes: as for B17
B30: GpH7-B3 variant T335_15Y/GpL16-k0 (antibody, human IgG1, kappa)
heavy: not shown
light: B1 light
notes: as for B17
B31: GpH7-B3 variant T335_16H/GpL16-k0 (antibody, human IgG1, kappa)
heavy: not shown
light: B1 light
notes: as for B17
B32: GpH7-B3 variant T335_19Q/GpL16-k0 (antibody, human IgG1, kappa)
heavy: not shown
light: B1 light
notes: as for B17
B33: GpH7-B3 variant V266_07I/GpL16-k0 (antibody, human IgG1, kappa)
heavy: not shown
light: B1 light
notes: as for B17
B34: GpH7-B3 variant Y296_18N/GpL16-k0 (antibody, human IgG1, kappa)
heavy: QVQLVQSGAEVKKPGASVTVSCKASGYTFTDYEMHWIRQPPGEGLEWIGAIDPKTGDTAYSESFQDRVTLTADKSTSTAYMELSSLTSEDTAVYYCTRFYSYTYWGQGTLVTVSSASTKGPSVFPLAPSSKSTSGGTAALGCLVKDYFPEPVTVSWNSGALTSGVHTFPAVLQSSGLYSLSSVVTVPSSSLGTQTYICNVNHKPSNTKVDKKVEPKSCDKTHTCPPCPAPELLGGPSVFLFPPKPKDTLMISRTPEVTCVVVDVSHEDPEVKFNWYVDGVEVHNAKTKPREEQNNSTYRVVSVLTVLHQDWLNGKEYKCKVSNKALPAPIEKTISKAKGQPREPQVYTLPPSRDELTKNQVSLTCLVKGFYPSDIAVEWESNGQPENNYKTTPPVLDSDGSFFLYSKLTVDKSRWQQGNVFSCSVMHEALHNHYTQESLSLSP
light: B1 light
notes: as for B17
B35: GpH7-B3 variant A327_09D/GpL16-k0 (antibody, human IgG1, kappa)
heavy: not shown
light: B1 light
notes: as for B17
B36: GpH7-B3 variant A330_19Q/GpL16-k0 (antibody, human IgG1, kappa)
heavy: not shown
light: B1 light
notes: as for B17
B37: GpH7-B3 variant E333_04F/GpL16-k0 (antibody, human IgG1, kappa)
heavy: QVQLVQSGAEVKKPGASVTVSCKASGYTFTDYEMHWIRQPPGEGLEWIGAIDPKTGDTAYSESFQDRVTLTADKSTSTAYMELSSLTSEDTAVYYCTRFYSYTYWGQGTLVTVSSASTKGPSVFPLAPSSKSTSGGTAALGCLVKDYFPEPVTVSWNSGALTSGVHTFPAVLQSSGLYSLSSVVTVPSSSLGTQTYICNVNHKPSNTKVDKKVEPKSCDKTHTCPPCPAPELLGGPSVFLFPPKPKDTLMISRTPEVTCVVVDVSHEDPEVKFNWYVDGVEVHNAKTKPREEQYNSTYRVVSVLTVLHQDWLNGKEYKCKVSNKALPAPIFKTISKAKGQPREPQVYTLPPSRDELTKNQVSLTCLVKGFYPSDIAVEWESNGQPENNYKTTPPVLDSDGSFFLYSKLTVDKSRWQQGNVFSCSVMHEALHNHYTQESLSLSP
light: B1 light
notes: as for B17
B38: GpH7-B3 variant E333_08L/GpL16-k0 (antibody, human IgG1, kappa)
heavy: not shown
light: B1 light
notes: as for B17
B39: GpH7-B3 variant E333_13S/GpL16-k0 (antibody, human IgG1, kappa)
heavy: not shown
light: B1 light
notes: as for B17
B40: GpH7-B3 variant E333_14T/GpL16-k0 (antibody, human IgG1, kappa)
heavy: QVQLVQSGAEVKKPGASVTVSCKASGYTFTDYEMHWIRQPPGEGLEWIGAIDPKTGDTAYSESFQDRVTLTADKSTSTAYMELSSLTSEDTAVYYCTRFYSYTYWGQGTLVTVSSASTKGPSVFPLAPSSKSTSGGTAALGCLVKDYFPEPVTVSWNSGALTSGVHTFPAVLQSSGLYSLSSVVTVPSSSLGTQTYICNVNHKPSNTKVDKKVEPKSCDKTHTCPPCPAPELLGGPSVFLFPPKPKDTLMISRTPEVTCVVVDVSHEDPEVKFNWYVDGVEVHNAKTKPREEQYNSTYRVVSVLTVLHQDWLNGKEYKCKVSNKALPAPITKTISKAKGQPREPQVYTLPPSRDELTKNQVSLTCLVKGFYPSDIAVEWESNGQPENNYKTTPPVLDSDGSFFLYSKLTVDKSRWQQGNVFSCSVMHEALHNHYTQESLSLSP
light: B1 light
notes: as for B17
B41: GpH7-B3 variant G236_04F/GpL16-k0 (antibody, human IgG1, kappa)
heavy: not shown
light: B1 light
notes: as for B17
B42: GpH7-B3 variant G236_14T/GpL16-k0 (antibody, human IgG1, kappa)
heavy: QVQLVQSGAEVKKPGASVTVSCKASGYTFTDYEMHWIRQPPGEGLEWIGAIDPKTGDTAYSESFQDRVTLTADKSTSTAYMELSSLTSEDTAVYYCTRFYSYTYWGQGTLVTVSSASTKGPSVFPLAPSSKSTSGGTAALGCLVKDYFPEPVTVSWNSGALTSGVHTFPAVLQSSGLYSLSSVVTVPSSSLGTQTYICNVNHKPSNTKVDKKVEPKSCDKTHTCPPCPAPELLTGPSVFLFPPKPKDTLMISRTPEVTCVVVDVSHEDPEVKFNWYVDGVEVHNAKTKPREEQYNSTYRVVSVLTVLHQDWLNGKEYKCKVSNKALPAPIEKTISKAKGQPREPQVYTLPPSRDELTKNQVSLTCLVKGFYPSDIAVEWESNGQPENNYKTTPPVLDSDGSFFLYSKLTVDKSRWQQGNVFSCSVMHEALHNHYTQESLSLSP
light: B1 light
notes: as for B17
B43: GpH7-B3 variant G236_15Y/GpL16-k0 (antibody, human IgG1, kappa)
heavy: not shown
light: B1 light
notes: as for B17
B44: GpH7-B3 variant I336_03V/GpL16-k0 (antibody, human IgG1, kappa)
heavy: not shown
light: B1 light
notes: as for B17
B45: GpH7-B3 variant I336_10E/GpL16-k0 (antibody, human IgG1, kappa)
heavy: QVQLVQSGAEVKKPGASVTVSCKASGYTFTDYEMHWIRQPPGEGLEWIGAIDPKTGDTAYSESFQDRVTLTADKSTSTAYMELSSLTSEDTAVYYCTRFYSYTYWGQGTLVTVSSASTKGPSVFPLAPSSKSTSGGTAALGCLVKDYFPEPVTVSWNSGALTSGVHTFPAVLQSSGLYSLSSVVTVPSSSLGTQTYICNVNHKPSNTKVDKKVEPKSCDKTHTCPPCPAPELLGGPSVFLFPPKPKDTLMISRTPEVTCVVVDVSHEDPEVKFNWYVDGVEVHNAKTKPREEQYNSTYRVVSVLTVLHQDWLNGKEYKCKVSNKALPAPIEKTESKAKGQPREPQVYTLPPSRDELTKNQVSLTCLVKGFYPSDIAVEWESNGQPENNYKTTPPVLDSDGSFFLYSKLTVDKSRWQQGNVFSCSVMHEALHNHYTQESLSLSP
light: B1 light
notes: as for B17
B46: GpH7-B3 variant I336_18N/GpL16-k0 (antibody, human IgG1, kappa)
heavy: not shown
light: B1 light
notes: as for B17
B47: GpH7-B3 variant K326_01G/GpL16-k0 (antibody, human IgG1, kappa)
heavy: not shown
light: B1 light
notes: as for B17
B48: GpH7-B3 variant K326_07I/GpL16-k0 (antibody, human IgG1, kappa)
heavy: not shown
light: B1 light
notes: as for B17
B49: GpH7-B3 variant K326_12R/GpL16-k0 (antibody, human IgG1, kappa)
heavy: not shown
light: B1 light
notes: as for B17
B50: GpH7-B3 variant K334_13S/GpL16-k0 (antibody, human IgG1, kappa)
heavy: not shown
light: B1 light
notes: as for B17
B51: GpH7-B3 variant K334_19Q/GpL16-k0 (antibody, human IgG1, kappa)
heavy: not shown
light: B1 light
notes: as for B17
B52: GpH7-B3 variant L234_04F/GpL16-k0 (antibody, human IgG1, kappa)
heavy: not shown
light: B1 light
notes: as for B17
B53: GpH7-B3 variant L234_15Y/GpL16-k0 (antibody, human IgG1, kappa)
heavy: not shown
light: B1 light
notes: as for B17
B54: GpH7-B3 variant L234_20W/GpL16-k0 (antibody, human IgG1, kappa)
heavy: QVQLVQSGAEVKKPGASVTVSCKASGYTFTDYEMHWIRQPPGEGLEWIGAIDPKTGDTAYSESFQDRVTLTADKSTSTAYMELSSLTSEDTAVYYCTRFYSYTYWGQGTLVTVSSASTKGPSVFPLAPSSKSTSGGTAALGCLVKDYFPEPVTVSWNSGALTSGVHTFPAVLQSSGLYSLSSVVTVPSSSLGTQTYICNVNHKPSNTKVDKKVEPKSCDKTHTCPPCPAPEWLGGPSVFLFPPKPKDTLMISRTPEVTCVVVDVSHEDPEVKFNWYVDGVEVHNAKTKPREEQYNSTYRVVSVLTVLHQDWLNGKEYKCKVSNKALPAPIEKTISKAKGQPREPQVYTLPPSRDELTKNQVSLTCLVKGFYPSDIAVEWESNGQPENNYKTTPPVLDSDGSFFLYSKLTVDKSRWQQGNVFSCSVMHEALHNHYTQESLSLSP
light: B1 light
notes: as for B17
B55: GpH7-B3 variant S239_08L/GpL16-k0 (antibody, human IgG1, kappa)
heavy: not shown
light: B1 light
notes: as for B17
B56: GpH7-B3 variant S239_10E/GpL16-k0 (antibody, human IgG1, kappa)
heavy: not shown
light: B1 light
notes: as for B17
B57: GpH7-B3 variant S267_09D/GpL16-k0 (antibody, human IgG1, kappa)
heavy: not shown
light: B1 light
notes: as for B17
B58: GpH7-B3 variant S267_10E/GpL16-k0 (antibody, human IgG1, kappa)
heavy: not shown
light: B1 light
notes: as for B17
B59: GpH7-B3 variant S337_07I/GpL16-k0 (antibody, human IgG1, kappa)
heavy: not shown
light: B1 light
notes: as for B17

Target: T1, FcγRIIa H (human FcγRIIa, allotype with His at position 131), extracellular domain with C-terminal His tag (human, UniProt P12318 34-217)
Experiment: SPR (Biacore), antibody captured on antigen peptide chip, FcγR as analyte; relative to HeCon Ab GpH7-A5/GpH7-B3/GpL16-k0 = 100

T1 sequence (P12318 34-217): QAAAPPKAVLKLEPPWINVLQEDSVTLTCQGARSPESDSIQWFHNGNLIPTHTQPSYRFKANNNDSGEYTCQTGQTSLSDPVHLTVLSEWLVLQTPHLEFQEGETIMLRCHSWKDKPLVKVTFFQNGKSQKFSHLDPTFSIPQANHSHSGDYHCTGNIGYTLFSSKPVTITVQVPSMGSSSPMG

He/Con_2aH | Binder
100 control = 100 | B1
102 control = 100 | B2
103 control = 100 | B3
105 control = 100 | B4
104 control = 100 | B5
100 control = 100 | B6
104 control = 100 | B7
104 control = 100 | B8
101 control = 100 | B9
103 control = 100 | B10
119 control = 100 | B11
115 control = 100 | B12
114 control = 100 | B13
112 control = 100 | B14
102 control = 100 | B15
106 control = 100 | B16

Target: T1, FcγRIIa H (human FcγRIIa, allotype with …)
Experiment: SPR (Biacore), antibody captured on antigen peptide chip, FcγR as analyte; relative to HoCon Ab GpH7-B3/GpL16-k0 = 100

Ho/Con_2aH | Binder
112 control = 100 | B17
100 control = 100 | B18
110 control = 100 | B19
112 control = 100 | B20
112 control = 100 | B21
120 control = 100 | B22
102 control = 100 | B23
107 control = 100 | B24
101 control = 100 | B25
101 control = 100 | B26
105 control = 100 | B27
105 control = 100 | B28
101 control = 100 | B29
102 control = 100 | B30
100 control = 100 | B31
103 control = 100 | B32
104 control = 100 | B33
100 control = 100 | B34
90.1 control = 100 | B35
99.2 control = 100 | B36
93.6 control = 100 | B37
96.5 control = 100 | B38

Ho/Con_2aH | Binder
94.6 control = 100 | B39
90.4 control = 100 | B40
63.2 control = 100 | B41
94.2 control = 100 | B42
80.4 control = 100 | B43
90.4 control = 100 | B44
93.4 control = 100 | B45
94.3 control = 100 | B46
98.2 control = 100 | B47
78.1 control = 100 | B48
98.8 control = 100 | B49
94.9 control = 100 | B50
97.2 control = 100 | B51
54.2 control = 100 | B52
43.8 control = 100 | B53
55.3 control = 100 | B54
87 control = 100 | B55
91.4 control = 100 | B56
91.5 control = 100 | B57
98.5 control = 100 | B58
94 control = 100 | B59
